T1: 256–595 domain of Dicer (human, UniProt Q9UPY3 256-595)
T1 sequence: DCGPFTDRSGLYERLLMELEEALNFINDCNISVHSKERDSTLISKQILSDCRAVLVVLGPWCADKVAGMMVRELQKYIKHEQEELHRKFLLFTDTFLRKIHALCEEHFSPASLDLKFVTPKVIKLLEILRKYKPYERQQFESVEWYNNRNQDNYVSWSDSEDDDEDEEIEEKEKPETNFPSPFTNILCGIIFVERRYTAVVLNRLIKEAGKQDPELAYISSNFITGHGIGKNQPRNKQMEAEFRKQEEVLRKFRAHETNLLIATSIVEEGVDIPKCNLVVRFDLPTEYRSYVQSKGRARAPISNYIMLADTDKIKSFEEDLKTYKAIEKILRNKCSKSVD


Assays:
[1] = target: T1, 256–595 domain of Dicer; assay: SEC
[2] = target: GST (glutathione-S-transferase)-tagged RPAP3 (human, UniProt Q9H6T3 1-665); assay: pull-down
Sequence of GST (glutathione-S-transferase)-tagged RPAP3 (Q9H6T3 whole entry): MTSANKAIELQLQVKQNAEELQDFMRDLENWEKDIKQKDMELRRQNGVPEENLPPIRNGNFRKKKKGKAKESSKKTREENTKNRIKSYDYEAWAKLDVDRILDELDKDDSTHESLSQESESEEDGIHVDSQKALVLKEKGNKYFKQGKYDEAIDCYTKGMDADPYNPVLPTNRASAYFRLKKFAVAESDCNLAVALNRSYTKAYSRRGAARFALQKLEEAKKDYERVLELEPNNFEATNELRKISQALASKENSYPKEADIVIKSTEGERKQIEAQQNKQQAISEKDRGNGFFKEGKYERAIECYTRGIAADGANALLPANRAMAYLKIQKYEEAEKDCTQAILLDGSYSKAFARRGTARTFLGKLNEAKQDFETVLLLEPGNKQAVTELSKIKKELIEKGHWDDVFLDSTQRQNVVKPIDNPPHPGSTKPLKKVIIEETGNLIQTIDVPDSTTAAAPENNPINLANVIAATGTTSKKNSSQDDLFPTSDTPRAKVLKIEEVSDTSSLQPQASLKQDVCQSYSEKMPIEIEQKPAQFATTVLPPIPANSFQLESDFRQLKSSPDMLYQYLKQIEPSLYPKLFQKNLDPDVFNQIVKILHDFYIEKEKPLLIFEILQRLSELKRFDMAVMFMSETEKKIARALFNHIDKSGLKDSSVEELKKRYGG

| binding result [1] | binding result [2] | Binder |
| --- | --- | --- |
| binds | – | TRBP-dsRBD3 (262–366) (domain or fragment) GCTWDSLRNSVGEKILSLRSCSLGSLGALGPACCRVLSELSEEQAFHVSYLDIEELSLSGLCQCLVELSTQPATVCHGSATTREAARGEAARRALQYLKIMAGSK |
| – | binds | His6-tagged TRBP protein (natural protein) MSEEEQGSGTTTGCGLPSIEQMLAANPGKTPISLLQEYGTRIGKTPVYDLLKAEGQAHQPNFTFRVTVGDTSCTGQGPSKKAAKHKAAEVALKHLKGGSMLEPALEDSSSFSPLDSSLPEDIPVFTAAAAATPVPSVVLTRSPPMELQPPVSPQQSECNPVGALQELVVQKGWRLPEYTVTQESGPAHRKEFTMTCRVERFIEIGSGTSKKLAKRNAAAKMLLRVHTVPLDARDGNEVEPDDDHFSIGVGSRLDGLRNRGPGCTWDSLRNSVGEKILSLRSCSLGSLGALGPACCRVLSELSEEQAFHVSYLDIEELSLSGLCQCLVELSTQPATVCHGSATTREAARGEAARRALQYLKIMAGSK |

Source: article PMC8887487 (Nucleic Acids Research, 2022)
